B1: DinI (natural protein)
chain: MRIEVTIAKTSPLPAGAIDALAGELSRRIQYAFPDNEGHVSVRYAAANNLSVIGATKEDKQRISEILQETWESADDWFVSE

Tests used:
[1] = target: NTD truncated λCI (K192A, residues 101 to 236), C-hexahistidine-tagged (λ phage); experiment: SEC
[2] = target: RecA (1 to 335), N-heptahistidine-tagged (Escherichia coli); experiment: cryo-EM structure
RecA (1 to 335), N-heptahistidine-tagged (Escherichia coli), sequence (A7ZQC8 2-336 limits assumed): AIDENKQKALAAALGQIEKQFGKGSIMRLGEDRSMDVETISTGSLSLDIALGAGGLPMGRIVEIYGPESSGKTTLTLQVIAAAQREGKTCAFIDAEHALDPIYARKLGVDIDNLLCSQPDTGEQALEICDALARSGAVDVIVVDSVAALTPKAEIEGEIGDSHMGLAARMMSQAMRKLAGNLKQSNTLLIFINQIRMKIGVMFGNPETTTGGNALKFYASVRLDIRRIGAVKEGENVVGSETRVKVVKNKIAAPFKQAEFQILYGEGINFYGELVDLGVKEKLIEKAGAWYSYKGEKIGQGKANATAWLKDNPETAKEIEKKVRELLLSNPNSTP

Molecule	stoichiometry N [1]	stoichiometry N (DinI molecules per RecA protomer) [2]
NTD truncated λCI (K192A, residues 101 to 236), C-hexahistidine-tagged (domain or fragment)	2	
B1		0.5
